The target in this data set is T1, HiNF-P (enriched chromatographic fraction, HeLa) (Homo sapiens, UniProt Q9BQA5 Q9BQA5:1-517).
T1 sequence: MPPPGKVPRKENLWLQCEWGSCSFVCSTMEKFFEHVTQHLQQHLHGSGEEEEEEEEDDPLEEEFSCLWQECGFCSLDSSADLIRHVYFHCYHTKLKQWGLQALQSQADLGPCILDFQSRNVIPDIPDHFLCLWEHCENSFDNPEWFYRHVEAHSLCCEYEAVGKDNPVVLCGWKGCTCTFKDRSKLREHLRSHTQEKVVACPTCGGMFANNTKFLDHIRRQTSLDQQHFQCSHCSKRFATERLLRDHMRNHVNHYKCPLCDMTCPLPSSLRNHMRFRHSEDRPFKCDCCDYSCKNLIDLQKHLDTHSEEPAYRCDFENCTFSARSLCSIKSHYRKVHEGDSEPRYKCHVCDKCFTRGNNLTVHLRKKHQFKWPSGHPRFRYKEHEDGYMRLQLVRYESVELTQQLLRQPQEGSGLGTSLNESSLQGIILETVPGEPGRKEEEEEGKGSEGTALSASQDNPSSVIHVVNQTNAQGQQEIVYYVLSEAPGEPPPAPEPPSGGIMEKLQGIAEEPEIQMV
Briefly: UV cross-linking, 65 kDa; 100 uM Zn2+ and Mg2+. The settings on record: label: 32P-dCTP. The protocol: FIG. 6B is a representation of an autoradiogram showing UV cross-linking of HiNF-P/Site II complexes. Oligonucleotides spanning wild type (WT) and mutant (Pmut) Site II sequences were labeled with BrdUTP and ³²P-dCTP then incubated with a fraction (7.5 μl; 0.4M KCl) containing enriched HiNF-P binding activity. The reaction mixture was exposed to UV light (305 nm) for 60 minutes and then digested with DNase I and MNase. Cross-linked, labeled proteins were analyzed using 10% SDS-PAGE and subjected to autoradiography. Molecular weight makers are shown at the left. The arrow indicates the 65 kDa HiNF-P-DNA complex.
Ultraviolet cross-linking experiments were performed by adapting a method described in Ausubel, F. M. et al. (Current Protocols in Molecular Biology. Greene and Wiley, New York, 1989). A radiolabeled and BrdU-substituted probe was prepared by incubating 20 pmol of partially double-stranded HiNF-P-specific oligonucleotide (top strand: 5′-CGC TTT CGG-3′, SEQ ID NO:13; Bottom strand: 5′-CAAGAGTATCGGACCAGATTGAAAACCGAAAGCG-3′, SEQ ID NO:14) with 1 μl of 50× dNTP/BrdUTP solution (containing 50 μM DATP, 50 μM dGTP, 37.5 μM dTTP and 12.5 μM BrdUTP), 150 μCi α-³²P-dCTP and 1 μl of a solution containing 5 mM DTT and 1 μg/μl BSA, in a total reaction volume of 25 μl. […] Following nuclease digestion, the products were analyzed by 10% SDS-PAGE.

B1: BrdU-substituted Site II probe (dsDNA)
DNA 1: CAAGAGTATCGGACCAGATTGAAAACCGAAAGCG
DNA 2: CGCTTTCGGTTTTCAATCTGGTCCGATACTCTTG
modifications: partial BrdU substitution for T in filled-in strand
Consider B1, for which the binding result is listed as “binds”.

(Values after patent US20040142894, “Modulation of cellular proliferation” (published 2004).)
